How the values were obtained:
Assay type in all cases: cell-based
[1] = test system: Escherichia coli K12 (ATCC 29425); assay: Broth microdilution assay (MIC/MBC), planktonic bacteria
Procedure: (§1) Antimicrobial activity of histone H5 against a variety of Gram-positive and Gram-negative planktonic bacteria was evaluated using a broth microdilution assay. The average minimum inhibitory concentration (MIC) and minimum bactericidal concentration (MBC) values (mean ± SD, n = 3) for six Gram-positive and four Gram-negative bacterial species are shown in Table 2. […] E. faecalis was the least susceptible to histone H5 inhibition, requiring over 32 µg/mL for complete bacterial growth inhibition which was the highest histone H5 concentration tested.
(§2) The bacterial strains tested in this study were Gram-positive bacteria (Bacillus cereus (ATCC 11778), methicillin-sensitive Staphylococcus aureus (ATCC 6538), methicillin-resistant Staphylococcus aureus (ATCC 29247), Listeria monocytogenes (ATCC 19112), Enterococcus faecalis (clinical isolate) and vancomycin-resistant Enterococcus (ATCC 51299)) and Gram-negative bacteria Escherichia coli K12 (ATCC 29425), Escherichia coli (O157:H7), Pseudomonas aeruginosa (ATCC 15442) and Salmonella typhimurium (ATCC 1535)). Bacterial colonies from glycerol stocks were plated on LB agar plates (BHI agar plates for L. monocytogenes) and incubated overnight at 37 °C. Single colonies from these plates were grown in 3 mL of LB broth (BHI broth for L. monocytogenes) overnight at 37 °C and shaken at 250 rpm. […] The bacterial suspension was pelleted at 3,000 × g, 4 °C for 10 minutes and washed with PBS (twice), and then adjusted to 10^5–10^6 CFUs/mL in PBS.
(§3) Supplementary Information
(§4) Broth microdilution assay
(§5) The protocol for this step of the project was based on established methods22. Histone H5 or the peptides were dissolved in sterile water, pH 7.4, serially two-fold diluted and aliquoted in a 1:1 (v/v) ratio with bacteria. Kanamycin or ampicillin served as a positive control for inhibition, and sterile water (pH 7.4) as a negative control for inhibition. The tubes were then incubated for 3 hours at 37°C an d shaken at 200 rpm. Next, 100 µL of each tube and 100µL of LB broth (BHI broth for L. monocytogenes) was plated in wells of a 96-well microplate. The microplate was incubated in the EON microplate reader overnight at 206 oscillations/min and at 37°C. During this period, the EON microplate spectrophotometer and Gen5 data analysis software (BioTek, Winooski, VT, USA) were used to monitor the growth of bacteria by measuring the optical density at 600 nm every 30 minutes for 18 hours. The lowest protein concentration without visible bacterial growth was designated as the minimum inhibitory concentration (MIC). Bacteria (10 µL) from the wells at MIC, MIC x 2 and MIC x 3 concentrations of H5 were plated on LB agar (BHI agar for L. monocytogenes) and incubated at 37°C for 18 hours. The lowest concentration of histone H5 without a single colony was designated as the minimum bactericidal concentration (MBC). […]

[2] = test system: Bacillus cereus (ATCC 11778); assay: as above; details: mean ± SD, n = 3
Procedure: as §1, §2, §3, §4, §5

[3] = test system: methicillin-resistant Staphylococcus aureus (ATCC 29247); assay: as above; details: mean ± SD, n = 3
Procedure: as §1, §2, §3, §4, §5

[4] = test system: Salmonella typhimurium (ATCC 1535); assay: as above
Procedure: as §1, §2, §3, §4, §5

[5] = test system: methicillin-sensitive Staphylococcus aureus (ATCC 6538); assay: as above; details: mean ± SD, n = 3
Procedure: as §1, §2, §3, §4, §5

[6] = test system: Enterococcus faecalis (clinical isolate); assay: as above; details: mean ± SD, n = 3
Procedure: as §1, §2, §3, §4, §5

[7] = test system: vancomycin-resistant Enterococcus (ATCC 51299); assay: as above; details: mean ± SD, n = 3
Procedure: as §1, §2, §3, §4, §5

Pseudomonas aeruginosa = assay: Scanning electron microscopy of treated planktonic bacteria; details: 4 µg/mL, 3-hour incubation; three independent trials, each in duplicate
Procedure: (§6) In order to study the effect of histone H5 on bacterial membranes, Gram-positive and Gram-negative planktonic bacteria incubated with histone H5 were visualized by scanning electron microscopy (SEM). Representative SEM images of Listeria monocytogenes and Pseudomonas aeruginosa untreated (H2O control) and histone H5-treated bacterial cells are shown in Fig. 3. […] Similar observations were made in each of three independent trials, each performed in duplicate.
(§7) The same protocols as described in the preparation of the bacterial suspension and the broth microdilution assay were followed to prepare the histone H5-treated bacteria and the untreated control cells for SEM. After a 3-hour incubation of the 1:1 (v/v) ratio of planktonic bacteria and histone H5 (or 1:1 (v/v) ratio of planktonic bacteria and sterile H2O for the untreated control cells), 100 µL of this solution was filtered directly through an Isopore™ polycarbonate membrane filter ([…], EMD Millipore Co Cork, IRL) which was placed in a Swinny Stainless Steel 13 mm Filter Holder (EMD Millipore, MA, USA) connected to vacuum suction. The filter was then removed and placed onto a Kimwipe™ (Kimberly-Clark™ Professional Kimtech Science™) in a glass cell culture dish. The filters were fixed with 5% glutaraldehyde in 0.1 M sodium cacodylate, pH 7.5 (VWR, Radnor, PA, USA) overnight at 4 °C. […]

Listeria monocytogenes = assay: as above; details: 4 µg/mL, 3-hour incubation; three independent trials, each in duplicate
Procedure: as §6, §7

[8] = test system: Gram-positive and Gram-negative planktonic bacteria; assay: Broth microdilution assay, summary over the planktonic bacteria tested; details: bactericidal when MBC ≤4 times the MIC
Procedure: as §1
The bacterial strains tested in this study were Gram-positive bacteria (Bacillus cereus (ATCC 11778), methicillin-sensitive Staphylococcus aureus (ATCC 6538), methicillin-resistant Staphylococcus aureus (ATCC 29247), Listeria monocytogenes (ATCC 19112), Enterococcus faecalis (clinical isolate) and vancomycin-resistant Enterococcus (ATCC 51299)) and Gram-negative bacteria Escherichia coli K12 (ATCC 29425), Escherichia coli (O157:H7), Pseudomonas aeruginosa (ATCC 15442) and Salmonella typhimurium (ATCC 1535)). Bacterial colonies from glycerol stocks were plated on LB agar plates (BHI agar plates for L. monocytogenes) and incubated overnight at 37 °C. […]
The protocol for this step of the project was based on established methods22. […] The microplate was incubated in the EON microplate reader overnight at 206 oscillations/min and at 37°C. […]

[9] = broth microdilution, 3 h at 37 °C, then OD600 growth 18 h in LB broth, mean ± SD, n = 3
[10] = plated on LB agar, 37 °C 18 h, lowest concentration without a single colony, mean ± SD, n = 3
[11] = value in the figure, representative of three independent trials, each in triplicate
[12] = broth microdilution, 3 h at 37 °C, then OD600 growth 18 h in LB broth
[13] = plated on LB agar, 37 °C 18 h, lowest concentration without a single colony

B1: histone H5: erythrocyte-specific linker histone purified from chicken erythrocytes, 190 amino acids (protein, UniProt P02259 2-190, looked up)
Histone H5: TESLVLSPAPAKPKRVKASRRSASHPTYSEMIAAAIRAEKSRGGSSRQSIQKYIKSHYKVGHNADLQIKLSIRRLLAAGVLKQTKGVGASGSFRLAKSDKAKRSPGKKKKAVRRSTSPKKAARPRKARSPAKKPKATARKARKKSRASPKKAKKPKTVKAKSRKASKAKKVKRSKPRAKSGARKSPKKK
- MIC [1, 9]: 4.9 ± 1.5 µg/mL
- MBC [1, 10]: 6.7 ± 2.3 µg/mL
- MIC [1, 11]: 6.7 µg/mL
- MIC ([2]; broth microdilution, 3 h at 37 °C with bacteria 1:1 (v/v), then OD600 growth 18 h in LB broth, lowest concentration without visible growth): 3.8 ± 1.7 µg/mL
- MBC ([2]; wells at MIC, MIC x 2, MIC x 3 plated on LB agar, 37 °C 18 h, lowest concentration without a single colony): 3.8 ± 1.7 µg/mL
- MIC [3, 12]: 2.4 ± 0.8 µg/mL
- MBC [3, 13]: 2.7 ± 1.2 µg/mL
- MIC [4, 9]: 1.9 ± 1.8 µg/mL
- MBC [4, 10]: 1.9 ± 1.8 µg/mL
- MIC [4, 11]: 4 µg/mL
- MIC [5, 12]: 3.8 ± 0.4 µg/mL
- MBC [5, 13]: 4 ± 0 µg/mL
- MIC ([6]; broth microdilution, 3 h at 37 °C, then OD600 growth 18 h in LB broth, highest concentration tested 32 µg/mL): >32 µg/mL
- MBC [6, 13]: >32 µg/mL
- MIC [7, 12]: 4 ± 1.2 µg/mL
- MBC [7, 13]: 4.4 ± 1.9 µg/mL
- bacterial cell morphology by SEM (Pseudomonas aeruginosa): indentations in the bacterial membrane, small pore formation
- bacterial cell morphology by SEM (Listeria monocytogenes): Multiple indentations in the bacterial membrane, membrane wrinkling and pronounced deformations
- MBC/MIC [8]: ≤ 4
